Source: patent US12617863 (CCOA THERAPEUTICS, dated 2026)

T1: mouse platelet glycoprotein I(b)α (GPIbα) on wild-type mouse platelets (mouse, UniProt O35930 17-734)
T1 construct: whole, on cells; also called mouse GPIbα
T1 sequence (looked up): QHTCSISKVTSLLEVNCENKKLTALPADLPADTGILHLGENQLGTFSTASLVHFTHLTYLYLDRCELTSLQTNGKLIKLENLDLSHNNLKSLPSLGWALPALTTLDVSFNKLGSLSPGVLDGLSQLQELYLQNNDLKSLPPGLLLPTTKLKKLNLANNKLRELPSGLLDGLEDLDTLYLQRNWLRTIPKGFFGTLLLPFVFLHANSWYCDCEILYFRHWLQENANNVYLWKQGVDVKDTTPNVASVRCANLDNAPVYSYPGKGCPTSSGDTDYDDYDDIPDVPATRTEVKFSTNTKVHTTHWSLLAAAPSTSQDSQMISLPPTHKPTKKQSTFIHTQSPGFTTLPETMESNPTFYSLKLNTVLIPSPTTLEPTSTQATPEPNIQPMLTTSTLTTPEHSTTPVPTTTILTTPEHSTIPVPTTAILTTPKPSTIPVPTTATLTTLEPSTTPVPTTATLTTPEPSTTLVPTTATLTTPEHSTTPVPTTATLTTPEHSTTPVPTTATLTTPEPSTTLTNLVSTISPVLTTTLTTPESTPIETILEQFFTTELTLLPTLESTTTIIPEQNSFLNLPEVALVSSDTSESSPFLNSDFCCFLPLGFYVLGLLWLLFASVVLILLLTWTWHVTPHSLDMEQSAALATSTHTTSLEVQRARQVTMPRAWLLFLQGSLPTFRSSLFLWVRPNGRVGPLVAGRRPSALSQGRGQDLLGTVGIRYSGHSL

T2: dog platelet glycoprotein I(b)α (GPIbα) on dog platelets (dog, UniProt Q28256 17-677)
T2 construct: whole, on cells; also called dog GPIbα
T2 sequence (looked up): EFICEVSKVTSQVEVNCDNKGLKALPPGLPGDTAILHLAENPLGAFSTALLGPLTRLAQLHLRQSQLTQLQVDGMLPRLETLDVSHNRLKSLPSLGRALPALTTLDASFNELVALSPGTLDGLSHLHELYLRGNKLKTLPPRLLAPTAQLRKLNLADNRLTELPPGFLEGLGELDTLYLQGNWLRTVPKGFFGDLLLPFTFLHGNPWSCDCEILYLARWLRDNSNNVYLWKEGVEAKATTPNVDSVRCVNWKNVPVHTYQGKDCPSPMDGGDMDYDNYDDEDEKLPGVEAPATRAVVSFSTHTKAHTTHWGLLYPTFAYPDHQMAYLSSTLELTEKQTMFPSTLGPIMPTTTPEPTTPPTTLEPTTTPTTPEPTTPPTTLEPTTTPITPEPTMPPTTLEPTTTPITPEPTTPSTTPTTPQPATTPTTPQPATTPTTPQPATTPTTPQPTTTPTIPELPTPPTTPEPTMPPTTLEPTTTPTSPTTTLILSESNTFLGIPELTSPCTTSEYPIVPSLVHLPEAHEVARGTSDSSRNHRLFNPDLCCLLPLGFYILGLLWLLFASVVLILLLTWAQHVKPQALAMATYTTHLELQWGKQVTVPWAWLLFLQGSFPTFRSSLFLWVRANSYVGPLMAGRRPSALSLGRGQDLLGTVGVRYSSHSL


What was measured:
[1] = molecular target: T3, human platelet glycoprotein I(b)α (GPIbα) on human platelets (human, UniProt P07359 17-652); experiment: flow cytometry on washed platelets, 2.5-5 µg/mL, FITC anti-human-Fab detection
T3 construct: whole, on cells; also called human GPIbα
T3 sequence (P07359 17-652): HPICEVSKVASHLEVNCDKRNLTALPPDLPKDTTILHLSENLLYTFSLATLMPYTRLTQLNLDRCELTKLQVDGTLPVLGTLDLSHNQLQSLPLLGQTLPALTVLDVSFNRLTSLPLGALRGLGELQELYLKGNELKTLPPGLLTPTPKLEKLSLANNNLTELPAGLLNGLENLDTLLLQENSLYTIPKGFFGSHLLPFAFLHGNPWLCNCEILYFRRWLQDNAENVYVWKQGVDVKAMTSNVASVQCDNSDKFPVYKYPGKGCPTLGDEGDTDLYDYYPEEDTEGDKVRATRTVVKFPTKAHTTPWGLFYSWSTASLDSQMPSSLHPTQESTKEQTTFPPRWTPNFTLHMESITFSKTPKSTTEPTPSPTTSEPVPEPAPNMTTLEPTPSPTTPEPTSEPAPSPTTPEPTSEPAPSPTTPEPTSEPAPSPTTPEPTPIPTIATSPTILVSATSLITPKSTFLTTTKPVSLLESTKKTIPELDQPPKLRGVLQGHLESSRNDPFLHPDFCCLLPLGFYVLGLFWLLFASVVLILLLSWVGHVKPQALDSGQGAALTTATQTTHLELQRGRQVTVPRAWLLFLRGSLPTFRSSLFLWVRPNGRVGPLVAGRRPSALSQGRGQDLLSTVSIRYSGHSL
Procedure: (§1) Specificity. Human and mouse platelet-rich plasma (PRP) was prepared by centrifugation at 300 g for 7 min, and was washed by transferring 200 µL PRP into 10 mL PBS followed with 800 g centrifugation for 10 min. The supernatant was then removed and platelets were re-suspended in 200 µL PBS. Washed platelets (10 µL) were incubated with the different antibodies (2.5-5 µg/mL) in a 200 µL system at room temperature for 30 min, and detected by FITC labeled anti-human-Fab antibody. These eight selected humanized Fabs H001-H008, the scFv and the chimeric protein all bound to both human and wild-type mouse platelets, but not GPIbα deficient mouse platelets, indicating the specificity of the humanized Fabs to platelet GPIbα (FIGS. 4 and 19).

[2] = molecular target: T1, mouse platelet glycoprotein I(b)α …; experiment: flow cytometry, washed wild-type mouse platelets, Fab 5 µg/mL, FITC anti-human-Fab detection
Procedure: as §1

[3] = molecular target: T4, rat platelet glycoprotein I(b)α (GPIbα) on rat platelets (rat); experiment: flow cytometry, rat platelets from PRP, FITC anti-human kappa chain detection
T4 construct: whole, on cells; also called rat GPIbα
Procedure: (§2) Platelets (2×10^5) from mouse, dog, human, rat and rabbit PRP were transferred into 200 µL PBS containing a serial concentration of the Fabs H001 or H002 at 50, 16.7, 5.6, 1.8, 0.6, 0.2 nM (for mouse and dog), at 200, 67, 22, 7.4, 2.5, 0.8, 0.3, 0.1 nM (for human and rat) and at 500, 100, 20, 4, 0.8 nM (for rabbit). After a 30 min incubation, a detection antibody (FITC-labeled anti-human Kappa chain, 1:200) was added and incubated in darkness for 15 min. Flow cytometry was performed using the BD LSR Fortessa™ X-20. H001 and H002 also bound to rat, dog and rabbit platelets (FIG. 5).

[4] = molecular target: T2, dog platelet glycoprotein I(b)α (GPIbα) …; experiment: flow cytometry, dog platelets from PRP, FITC anti-human kappa chain detection
Procedure: as §2

[5] = molecular target: T3, human platelet glycoprotein I(b)α …; experiment: flow cytometry, human platelets from PRP, FITC anti-human kappa chain detection
Procedure: as §2

[6] = molecular target: T1, mouse platelet glycoprotein I(b)α …; experiment: flow cytometry, mouse platelets from PRP, FITC anti-human kappa chain detection
Procedure: as §2

[7] = molecular target: T5, recombinant hexa-histidine tagged GPIbα; experiment: SPR steady-state response against H001 concentration, His-tagged GPIbα immobilised
T5 construct: Held on a Ni-NTA SPR sensor by its hexa-histidine tag; also called recombinant GPIbα; immobilized GPIbα
T5 sequence (P07359 17-652): as above
Procedure: (§3) The biosensors were rinsed with copious amounts of anhydrous ethanol followed by 16 hour incubation in a solution of 1 mM mercaptopropionic acid in dimethylformamide. Following the incubation, SPR biosensors were rinsed with copious amounts of dimethylformamide followed by anhydrous ethanol and finally ddH₂O. The biosensors were then incubated in 40 mM 1-Ethyl-3-(3-dimethylaminopropyl) carbodiimide and 20 mM N-Hydroxysuccinimide dissolved in ddH₂O for 1 hour. Sensors were then rinsed with copious amounts of ddH₂O and then incubated with 100 mM Nα,Nα-Bis(carboxymethyl)-L-lysine hydrate for 4 hour. Following the incubation, the biosensing surfaces were rinsed with ddH2O. The final step before SPR experiments was to expose the functionalized biosensing surfaces with 100 mM NiCl₂ for 1 hour.
(§4) The SPR experiments were performed on a Biosensing Instrument 4000 SPR. The functionalized biosensors were loaded onto the instrument and the biosensor was equilibrated with running buffer (10 mM tris(hydroxymethyl) aminomethane, 140 mM NaCl, 20 mM Imidazole pH=7.4) at a flow rate of 40 μL/min. For binding measurements 25 μL of 500 nM hexa-histidine tagged GPIbα was injected over the biosensing surface immobilizing the GPIbα to the SPR sensor surface. […] The resulting data was analyzed using the instrument included SPR analysis software. […]

[8] = molecular target: T5, recombinant hexa-histidine tagged GPIbα; experiment: SPR, size of shifts against concentration, one site binding model
Procedure: The SPR experiments were performed on a Biosensing Instrument 4000 SPR. The functionalized biosensors were loaded onto the instrument and the biosensor was equilibrated with running buffer (10 mM tris(hydroxymethyl) aminomethane, 140 mM NaCl, 20 mM Imidazole pH=7.4) at a flow rate of 40 μL/min. For binding measurements 25 μL of 500 nM hexa-histidine tagged GPIbα was injected over the biosensing surface immobilizing the GPIbα to the SPR sensor surface. The baseline was allowed to equilibrate followed by injection of 25 μL of the desired concentration of ligand (either Fab H001 or control). Biosensing surfaces were regenerated between ligand injections by injection of 100 μL of 500 mM imidazole in running buffer, followed by 100 μL of 100 mM NiCl_2. The resulting data was analyzed using the instrument included SPR analysis software.
GPIbα immobilized SPR biosensors were exposed to 500, 100, 50 and 10 nM of Fab H001 antibody and 100 nM control antibody (PSI E1, an antibody against GPIIbIIIa). […] In contrast the Fab H001 antibody clearly bound GPIbα producing clear SPR shifts with only partial dissociation after the end of the injection (FIG. 7A).

[9] = molecular target: T5, recombinant hexa-histidine tagged GPIbα; experiment: SPR, His-tagged GPIbα held on Ni-NTA sensor, kinetics binding model
Procedure: as §3, §4

binding result [1] | binding result [2] | Binder | also measured
binds | binds | humanized Fab H004 (Fab, V domains shown, Fab with human IgG1 CH1 and human kappa constant region; also called VH3 + VL2) VH: EVQLVESGGGLVQPGGSLRLSCAASGFTFSSFAMSWVRQAPGKGLEWVSSITSAGTPYYPDSVLGRFTISRDNSKNTLYLQMNSLRAEDTAVYYCAKSRGYEDYFDYWGQGTLVTVSS VL: DIQMTQSPSSLSASVGDRVTITCKSSQSLLNSRNQKNYLAWYQQKPGKAPKLLIYFTSTRESGVPSRFSGSGSGTDFTLTISSLQPEDFATYYCQQHYSSPWTFGQGTKVEIKR | –
binds | binds | humanized Fab H003 (Fab, V domains shown, Fab with human IgG1 CH1 and human kappa constant region; also called VH2 + VL1) VH: EVQLVESGGGLVKPGGSLRLSCAASGFTFSSFAMSWVRQAPGKGLEWVSSITSAGTPYYPDSVLGRFTISRDNAKNSLYLQMNSLRAEDTAVYYCARSRGYEDYFDYWGQGTTVTVSR VL: DIVMTQSPDSLAVSLGERATINCKSSQSLLNSRNQKNYLAWYQQKPGQPPKLLIYFTSTRESGVPDRFSGSGSGTDFTLTISSLQAEDVAVYYCQQHYSSPWTFGGGTKLEIKR | –
binds | binds | humanized Fab H005 (Fab, V domains shown, Fab with human IgG1 CH1 and human kappa constant region; also called VH3 + VL3) VH: EVQLVESGGGLVQPGGSLRLSCAASGFTFSSFAMSWVRQAPGKGLEWVSSITSAGTPYYPDSVLGRFTISRDNSKNTLYLQMNSLRAEDTAVYYCAKSRGYEDYFDYWGQGTLVTVSS VL: DIVMTQSPLSLPVTPGEPASISCKSSQSLLNSRNQKNYLAWYLQKPGQSPQLLIYFTSTRESGVPDRFSGSGSGTDFTLKISRVEAEDVGVYYCQQHYSSPWTFGQGTKVEIKR | –
binds | binds | humanized Fab H006 (Fab, V domains shown, Fab with human IgG1 CH1 and human kappa constant region; also called VH4 + VL1) VH: QVQLVESGGGVVQPGRSLRLSCAASGFTFSSFAMSWVRQAPGKGLEWVASITSAGTPYYPDSVLGRFTISRDNSKNTLYLQMNSLRAEDTAVYYCARSRGYEDYFDYWGQGTLVTVSS VL: DIVMTQSPDSLAVSLGERATINCKSSQSLLNSRNQKNYLAWYQQKPGQPPKLLIYFTSTRESGVPDRFSGSGSGTDFTLTISSLQAEDVAVYYCQQHYSSPWTFGGGTKLEIKR | –
binds | binds | humanized Fab H008 (Fab, V domains shown, Fab with human IgG1 CH1 and human kappa constant region; also called VH4 + VL3) VH: QVQLVESGGGVVQPGRSLRLSCAASGFTFSSFAMSWVRQAPGKGLEWVASITSAGTPYYPDSVLGRFTISRDNSKNTLYLQMNSLRAEDTAVYYCARSRGYEDYFDYWGQGTLVTVSS VL: DIVMTQSPLSLPVTPGEPASISCKSSQSLLNSRNQKNYLAWYLQKPGQSPQLLIYFTSTRESGVPDRFSGSGSGTDFTLKISRVEAEDVGVYYCQQHYSSPWTFGQGTKVEIKR | –
– | – | humanized Fab H002 (Fab, V domains shown, Fab with human IgG1 CH1 and human kappa constant region; also called Fab H002 antibody; VH1 + VL3) VH: QVQLVESGGGLVKPGGSLRLSCAASGFTFSSFAMSWIRQAPGKGLEWVSSITSAGTPYYPDSVLGRFTISRDNAKNSLYLQMNSLRAEDTAVYYCARSRGYEDYFDYWGQGTLVTVSS VL: DIVMTQSPLSLPVTPGEPASISCKSSQSLLNSRNQKNYLAWYLQKPGQSPQLLIYFTSTRESGVPDRFSGSGSGTDFTLKISRVEAEDVGVYYCQQHYSSPWTFGQGTKVEIKR | EC50 (read off the curve) [3]: ~3 nM; EC50 (read off the curve) [4]: ~2 nM; binding result [5]: binds; binding result [6]: binds
binds | binds | humanized Fab H007 (Fab, V domains shown, Fab with human IgG1 CH1 and human kappa constant region; also called VH4 + VL2) VH: QVQLVESGGGVVQPGRSLRLSCAASGFTFSSFAMSWVRQAPGKGLEWVASITSAGTPYYPDSVLGRFTISRDNSKNTLYLQMNSLRAEDTAVYYCARSRGYEDYFDYWGQGTLVTVSS VL: DIQMTQSPSSLSASVGDRVTITCKSSQSLLNSRNQKNYLAWYQQKPGKAPKLLIYFTSTRESGVPSRFSGSGSGTDFTLTISSLQPEDFATYYCQQHYSSPWTFGQGTKVEIKR | –
– | binds | humanized Fab H001 (Fab, V domains shown, Fab with human IgG1 CH1 and human kappa constant region; also called Fab H001 antibody; VH1 + VL2) VH: QVQLVESGGGLVKPGGSLRLSCAASGFTFSSFAMSWIRQAPGKGLEWVSSITSAGTPYYPDSVLGRFTISRDNAKNSLYLQMNSLRAEDTAVYYCARSRGYEDYFDYWGQGTLVTVSS VL: DIQMTQSPSSLSASVGDRVTITCKSSQSLLNSRNQKNYLAWYQQKPGKAPKLLIYFTSTRESGVPSRFSGSGSGTDFTLTISSLQPEDFATYYCQQHYSSPWTFGQGTKVEIKR | EC50 (read off the curve) [3]: ~3 nM; EC50 (read off the curve) [4]: ~3 nM; EC50 (read off the curve) [5]: ~10 nM; EC50 (read off the curve) [7]: ~80 nM; Kd [8]: 8 nM; Kd [9]: 4.4 nM; koff [9]: 0.11 s⁻¹
